In PMC3349548, “UBXN7 docks on neddylated cullin complexes using its UIM motif and causes HIF1α accumulation” (BMC Biology, 2012):

What was measured:
Settings in all cases: both partners purified
[1] = biological target: T1, Flag-CUL1(324-776)/GST-HA-RBX1 complex, non-neddylated (mock neddylation) (UniProt Q13616 324-776; P62877 1-108); test: pull-down; Flag-CUL1(324-776)/GST-HA-RBX1 (about 1 μg) immobilized on GSH-sepharose, neddylated or mock-treated, incubated for one hour with 3 μg Flag-UBXN7 variant in buffer D; naked beads as control
T1 construct: RBX1; also called non-neddylated CUL1 fragment; CUL1/RBX1 complex; source: E. coli BL21, co-expressed, immobilized from lysate on GSH-sepharose
T1 sequence (Q13616 324-776, chain 1 of 2): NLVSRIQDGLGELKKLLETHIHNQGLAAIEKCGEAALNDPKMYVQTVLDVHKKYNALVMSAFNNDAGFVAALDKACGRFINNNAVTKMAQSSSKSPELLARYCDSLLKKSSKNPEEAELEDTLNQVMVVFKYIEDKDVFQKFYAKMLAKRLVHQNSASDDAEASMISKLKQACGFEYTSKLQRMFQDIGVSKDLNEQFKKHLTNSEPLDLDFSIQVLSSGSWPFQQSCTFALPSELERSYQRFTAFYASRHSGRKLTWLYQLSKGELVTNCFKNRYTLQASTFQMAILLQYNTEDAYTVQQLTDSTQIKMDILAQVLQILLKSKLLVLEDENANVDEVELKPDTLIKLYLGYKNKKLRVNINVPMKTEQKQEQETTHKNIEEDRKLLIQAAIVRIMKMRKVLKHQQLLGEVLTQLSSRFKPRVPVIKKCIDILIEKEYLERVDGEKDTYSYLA
T1 sequence (P62877 whole entry, chain 2 of 2, the tested form may be a part): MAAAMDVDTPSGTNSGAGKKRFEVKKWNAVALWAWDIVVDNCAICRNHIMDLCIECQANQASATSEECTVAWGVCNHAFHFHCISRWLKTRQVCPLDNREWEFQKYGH

[2] = biological target: T2, Flag-CUL1(324-776)/GST-HA-RBX1 complex, neddylated in vitro (mixture of neddylated and non-neddylated) (UniProt Q13616 324-776; P62877 1-108; Q15843 1-76, NEDD8 conjugated in vitro (mixture of neddylated and non-neddylated); site not stated); test: as above
T2 construct: RBX1; NEDD8 (BostonBiochem) conjugated to the CUL1 fragment in vitro; also called neddylated CUL1 fragment; source: E. coli BL21, co-expressed, immobilized from lysate on GSH-sepharose, neddylated in vitro on the beads; copies: + +
T2 sequence (Q13616 324-776, chain 1 of 3): as the sequence (Q13616 324-776, chain 1 of 2) above
T2 sequence (P62877 whole entry, chain 2 of 3, the tested form may be a part): as the sequence (P62877 whole entry, chain 2 of 2, the tested form may be a part) above
T2 sequence (Q15843 1-76, chain 3 of 3): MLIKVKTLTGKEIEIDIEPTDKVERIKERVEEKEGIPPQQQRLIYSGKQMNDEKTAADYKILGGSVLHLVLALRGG

[3] = biological target: T3, ubiquitin-agarose (UniProt P0CG47 1-76); test: pull-down; 25 μg recombinant UBXN7 variant incubated for one hour with 10 μl NEDD8- or ubiquitin-agarose in buffer D (50 mM HEPES/KOH pH 7.5, 60 mM KOAc, 5 mM MgCl2, 5% glycerol, 0.1% Triton X-100)
T3 construct: ubiquitin coupled to agarose beads; source: bought: BostonBiochem (ubiquitin-agarose)

[4] = biological target: T4, CUL2/RBX1, neddylated in vitro (partially neddylated full-length CUL2) (human | , UniProt Q13617-1 1-745; P62877 1-108; Q15843 1-76, NEDD8 conjugated in vitro on only a fraction of CUL2; Lys689 is the site of NEDD8-conjugation in human CUL2); test: co-IP; 1.5 μg CUL2/RBX1 (unmodified or neddylated in vitro) pre-incubated with 1.5 μg bacterially expressed Flag-UBXN7 for 30 minutes, then one hour with anti-Flag beads in buffer D
T4 construct: CUL2, human, full-length; RBX1, amplified from EST IMAGE 3138751; NEDD8 (BostonBiochem) conjugated to CUL2 in vitro; RBX1 substoichiometric; also called neddylated CUL2; CUL2 that was in vitro neddylated; copies: + +
T4 sequence (Q13617 whole entry, chain 1 of 3): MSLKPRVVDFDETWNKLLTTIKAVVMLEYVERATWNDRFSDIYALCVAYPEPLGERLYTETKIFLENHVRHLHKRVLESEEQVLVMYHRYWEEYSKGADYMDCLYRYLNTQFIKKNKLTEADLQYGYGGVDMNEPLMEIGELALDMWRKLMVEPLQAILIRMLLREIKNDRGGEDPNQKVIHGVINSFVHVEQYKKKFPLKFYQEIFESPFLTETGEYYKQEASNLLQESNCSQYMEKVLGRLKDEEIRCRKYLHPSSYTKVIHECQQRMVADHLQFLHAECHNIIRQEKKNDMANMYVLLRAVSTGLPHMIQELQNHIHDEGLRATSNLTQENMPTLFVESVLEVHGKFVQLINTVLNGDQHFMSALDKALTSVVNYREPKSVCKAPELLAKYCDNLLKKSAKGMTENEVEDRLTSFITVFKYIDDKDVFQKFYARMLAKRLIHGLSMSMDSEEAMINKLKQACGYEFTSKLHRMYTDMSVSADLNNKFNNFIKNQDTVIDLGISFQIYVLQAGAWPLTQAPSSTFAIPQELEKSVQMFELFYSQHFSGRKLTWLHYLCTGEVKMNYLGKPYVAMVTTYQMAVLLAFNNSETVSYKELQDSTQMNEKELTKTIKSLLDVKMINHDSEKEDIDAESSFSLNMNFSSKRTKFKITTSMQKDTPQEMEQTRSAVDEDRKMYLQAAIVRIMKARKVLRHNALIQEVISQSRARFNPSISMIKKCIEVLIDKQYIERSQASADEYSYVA
T4 sequence (P62877 whole entry, chain 2 of 3): as the sequence (P62877 whole entry, chain 2 of 2, the tested form may be a part) above
T4 sequence (Q15843 1-76, chain 3 of 3): as the sequence (Q15843 1-76, chain 3 of 3) above

[5] = biological target: T5, CUL2/RBX1, unmodified (full-length CUL2, GST cleaved off) (human | , UniProt Q13617-1 1-745; P62877 1-108); test: as above
T5 construct: CUL2, human, full-length; RBX1, amplified from EST IMAGE 3138751; also called unmodified CUL2; non-neddylated CUL2; source: Spodoptera frugiperda 21 cells (baculovirus), purified (GSH-Sepharose, GST cleaved with PreScission protease)
T5 sequence (Q13617 whole entry, chain 1 of 2): as the sequence (Q13617 whole entry, chain 1 of 3) above
T5 sequence (P62877 whole entry, chain 2 of 2): as the sequence (P62877 whole entry, chain 2 of 2, the tested form may be a part) above

Measured: binding result

B1: bacterially expressed Flag-UBXN7 (wild-type, full length) (natural protein, human, UniProt O94888 1-489, looked up)
chain: MAAHGGSAASSALKGLIQQFTTITGASESVGKHMLEACNNNLEMAVTMFLDGGGIAEEPSTSSASVSTVRPHTEEEVRAPIPQKQEILVEPEPLFGAPKRRRPARSIFDGFRDFQTETIRQEQELRNGGAIDKKLTTLADLFRPPIDLMHKGSFETAKECGQMQNKWLMINIQNVQDFACQCLNRDVWSNEAVKNIIREHFIFWQVYHDSEEGQRYIQFYKLGDFPYVSILDPRTGQKLVEWHQLDVSSFLDQVTGFLGEHGQLDGLSSSPPKKCARSESLIDASEDSQLEAAIRASLQETHFDSTQTKQDSRSDEESESELFSGSEEFISVCGSDEEEEVENLAKSRKSPHKDLGHRKEENRRPLTEPPVRTDPGTATNHQGLPAVDSEILEMPPEKADGVVEGIDVNGPKAQLMLRYPDGKREQITLPEQAKLLALVKHVQSKGYPNERFELLTNFPRRKLSHLDYDITLQEAGLCPQETVFVQERN
notes: UBXN7, human, full length, in a modified pGEX6P-1 vector; also called wild-type UBXN7; recombinant UBXN7; source: E. coli BL21 DE3, purified (GSH-sepharose, TEV cleavage, Superdex 75)
binds: [1] | [2] | [3] | [4] | [5]
